Measurements reported in the supplement of paper PMC10567573.

B1: MFF (parent)
chain: MAEISRIQYEMEYTEGISQRMRVP
B2: FBXO3 (parent)
chain: DEEERRRRVFDVPIRRRRCSRLF

Variants of: B1
Test: protein stability index of a GFP-peptide fusion (GPS, HEK-293T) (PSI 1-6); higher = more stable
Conditions: c terminus: a fixed tail appended
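Note: lentivirally expressed fusions sorted by FACS into six bins by GFP to DsRed ratio, PSI derived from sequencing read proportions per bin multiplied by bin number.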

Protein stability index: each site, then its substitutions
M1: Q 3.56 | C 1.85 | Y 1.9 | S 3.01 | D 3.56 | V 2.85 | E 4.04 | F 1.97 | G 3.14 | P 3.45 | K 2.97 | H 2.92 | A 2.92 | R 3.1 | T 3.28 | W 2.35 | L 2.55 | N 3.16 | I 2.36
M11: I 2.16 | E 4.06 | C 3.04 | P 3.2 | H 3.38 | G 3.28 | K 3.27 | N 3.78 | F 2.35 | L 2.37 | D 3.61 | A 3.68
I7: C 2.56 | K 3.34 | Q 3.43 | Y 2.58 | D 3.8 | E 4.11 | F 2.69 | N 3.6 | H 3 | V 2.64 | G 3.03 | S 3.51 | M 2.93 | A 3.22 | R 3.33 | P 3.37 | L 2.29 | W 2.02 | T 3.4
S5: K 2.17 | M 1.34 | R 2.75 | I 2.11 | C 1.88 | V 2.02 | Q 2.36 | L 2.17 | W 2.46 | D 3.39 | Y 1.6 | H 2.47 | A 1.72 | N 2.53 | P 3.52 | F 1.71 | G 2.27 | T 2.02 | E 2.95
Q8: R 2.21 | P 3.03 | E 3.02 | S 2.71 | M 1.94 | C 1.9 | Y 1.75 | W 1.49 | G 2.9 | F 1.58 | L 1.6 | N 2.85 | T 2.38 | H 2.47 | K 2.13 | I 2.52 | D 2.85 | A 2.31 | V 1.45
E3: T 2.07 | F 1.76 | N 2.41 | R 2.39 | K 2.3 | G 2.96 | V 1.98 | A 1.85 | I 1.7 | M 1.91 | D 2.58 | S 1.85 | C 2.45 | L 1.77 | H 2.93 | Q 2.07 | W 1.57 | P 3.31 | Y 2.01
E10: S 2.74 | L 1.66 | W 2.72 | T 1.99 | A 2.15 | G 2.67 | C 1.99 | N 2.55 | Y 2.09 | F 1.96 | I 1.6 | K 2.66 | Q 2.76 | V 1.89 | D 2.74 | P 3.04 | H 2.42 | R 2.05 | M 2.08
Y9: P 3.57 | N 3.07 | R 2.88 | I 1.71 | Q 3.35 | L 2.28 | K 2.95 | W 2.28 | S 3.42 | V 2.15 | E 3.6 | T 3.22 | A 3.31 | F 2.11 | C 2.78 | M 2.42 | G 3.6 | H 3.09 | D 3.85
A2: T 2.74 | H 2.45 | F 1.58 | E 3.33 | D 2.83 | R 2.54 | S 2.5 | G 3.03 | M 2.03 | C 2.25 | Q 2.76 | W 1.51 | I 2.17 | N 3.09 | L 1.86 | K 2.77 | P 3.33 | V 1.96 | Y 1.95
I4: M 3.56 | W 2.89 | Y 2.8 | N 3.71 | S 3.42 | E 4.08 | A 3.38 | L 2.99 | K 3.58 | T 3.86 | H 3.34 | V 2.74 | P 3.55 | Q 3.8 | C 3.6 | G 3.4 | R 3.31 | F 2.56 | D 3.41
R6: I 1.63 | K 3.15 | A 3.16 | S 3.37 | M 2.41 | L 1.71 | P 3.36 | E 3.42 | F 2.06 | Y 1.53 | H 3 | V 2.03 | T 2.93 | C 2.97 | W 1.95 | N 3.27 | D 3.28 | Q 3.34 | G 3.36

Variants of: B2
Test: as above
Conditions: c terminus: native

Protein stability index, by site and new letter:
D11: M 2.08 | C 1.53 | I 2.93 | A 2.73 | R 2.25 | L 2.33 | F 1.89 | S 2.75 | G 2.65
R17: P 1.96 | W 2.83 | N 2.09 | L 1.84 | G 1.98 | M 2.27 | Q 2.5
R21: P 2.72
P13: R 1.72 | S 2.23 | T 1.44 | K 2.9 | L 3.65 | W 2.87 | A 2.46 | Q 2.2
D1: M 2.97 | G 1.91 | I 2.83 | P 2.55 | T 2.2 | E 3.14
C19: E 1.83 | H 4.39 | V 3.22 | R 4.59
R18: S 2.26 | I 1.34 | A 1.69 | H 2.18 | C 2.29 | N 1.76 | T 1.7 | L 2.68
E3: R 2.34 | N 2.79 | S 1.91 | C 1.94 | K 2.68 | D 2.63 | L 1.48 | A 1.88
I14: H 2.48 | W 2.7 | F 2.2 | R 3.33 | G 3.04 | N 2.25
F23: T 2.4 | M 2.45 | C 2.65 | D 2.71 | L 4.08
V9: G 3.87
L22: I 2.82 | S 2.17 | T 2.46 | D 4.94 | Q 1.55
R15: E 2.44 | H 1.85 | P 2.56 | Q 2.27
V12: A 3.05 | L 2.61 | Y 2.78
R7: V 3.01 | F 2.61 | E 3.88 | S 4.28 | A 3.6 | G 3.64 | C 2.89
R6: K 3.35 | P 3.79 | C 2.83 | M 2.58 | Q 3.79 | F 1.35 | G 4.09 | E 4.16
F10: K 4.19 | E 4.16 | I 3.84 | Y 3.22 | C 3.43
E2: K 1.36 | M 1.9 | N 3.05 | R 2.33 | I 2.52 | C 1.71 | G 2.58 | S 2.21
E4: Q 2.72 | V 1.86 | A 1.98 | K 1.98 | G 2.48 | W 1.73 | F 2.13
S20: E 3.04 | T 1.91 | F 2.77 | M 2.04 | I 2.05 | D 2.2
R5: I 3.44 | E 4.12 | N 3.77 | S 3.55 | V 3.25
R16: T 2.19 | D 2.22 | I 2.2 | P 3.45 | M 2.21
R8: F 1.28 | D 3.58 | H 3.1 | I 2.88 | N 3.35 | M 2.89
